From patent US20200405852A1 (BIOVERATIV USA, published 2020)

B1: TNT005.001 (antibody, V domains shown)
VH: EVQLQQSGAELVRPGASVKLSCTASGFNIKDDYIHWVKQRPEQGLEWIGRIDPADGHTKYAPKFQVKATITADTSSNTAYLQLSSLTSEDTAVYYCARYGYGREVFDYWGQGTTLTVSS
VL: DIVLTQSPASLAVSLGQRATISCKASQSVDYDGDSYMNWYQQKTGQPPKILIYDASNLESGIPARFSGSGSGTDFTLNIHPVEEEDAAIYYCQQSNEDPWTFGGGTKLEIK
notes: Unlabelled parental antibody; also called parental TNT005 (not biotinylated)
B2: humanized TNT005 variant VH variant 3+Vk variant 2 (antibody, V domains shown)
VH: QVQLVQSGAEVKKPGASVKLSCTASGFNIKDDYIHWVKQAPGQGLEWIGRIDPADGHTKYAPKFQVKVTITADTSTSTAYLELSSLRSEDTAVYYCARYGYGREVFDYWGQGTTVTVSS
VL: DIVLTQSPDSLAVSLGERATISCKASQSVDYDGDSYMNWYQQKPGQPPKILIYDASNLESGIPARFSGSGSGTDFTLTISSLEPEDFAIYYCQQSNEDPWTFGGGTKVEIK
notes: also called VH variant 3 + VL variant 2
B3: biotinylated TNT005 (antibody, V domains shown)
VH: EVQLQQSGAELVRPGASVKLSCTASGFNIKDDYIHWVKQRPEQGLEWIGRIDPADGHTKYAPKFQVKATITADTSSNTAYLQLSSLTSEDTAVYYCARYGYGREVFDYWGQGTTLTVSS
VL: DIVLTQSPASLAVSLGQRATISCKASQSVDYDGDSYMNWYQQKTGQPPKILIYDASNLESGIPARFSGSGSGTDFTLNIHPVEEEDAAIYYCQQSNEDPWTFGGGTKLEIK
notes: Parental antibody; also called Biot-005; parental TNT005
B4: humanized TNT005 variant VH variant 3+Vk variant 1 (antibody, V domains shown)
VH: QVQLVQSGAEVKKPGASVKLSCTASGFNIKDDYIHWVKQAPGQGLEWIGRIDPADGHTKYAPKFQVKVTITADTSTSTAYLELSSLRSEDTAVYYCARYGYGREVFDYWGQGTTVTVSS
VL: DIVLTQSPDSLAVSLGERATISCKASQSVDYDGDSYMNWYQQKTGQPPKILIYDASNLESGIPARFSGSGSGTDFTLTISSLEEEDFAIYYCQQSNEDPWTFGGGTKVEIK
notes: also called VH variant 3 + VL variant 1
B5: humanized TNT005 variant VH variant 1+Vk variant 2 (antibody, V domains shown)
VH: EVQLVQSGAELKKPGASVKLSCTASGFNIKDDYIHWVKQAPGQGLEWIGRIDPADGHTKYAPKFQVKATITADTSTNTAYLQLSSLTSEDTAVYYCARYGYGREVFDYWGQGTTVTVSS
VL: DIVLTQSPDSLAVSLGERATISCKASQSVDYDGDSYMNWYQQKPGQPPKILIYDASNLESGIPARFSGSGSGTDFTLTISSLEPEDFAIYYCQQSNEDPWTFGGGTKVEIK
notes: also called VH variant 1 + VL variant 2
B6: humanized TNT005 variant VH variant 1+Vk variant 1 (antibody, V domains shown)
VH: EVQLVQSGAELKKPGASVKLSCTASGFNIKDDYIHWVKQAPGQGLEWIGRIDPADGHTKYAPKFQVKATITADTSTNTAYLQLSSLTSEDTAVYYCARYGYGREVFDYWGQGTTVTVSS
VL: DIVLTQSPDSLAVSLGERATISCKASQSVDYDGDSYMNWYQQKTGQPPKILIYDASNLESGIPARFSGSGSGTDFTLTISSLEEEDFAIYYCQQSNEDPWTFGGGTKVEIK
notes: also called VH variant 1 + VL variant 1
B7: humanized TNT005 variant VH variant 4+Vk variant 2 (antibody, V domains shown)
VH: QVQLVQSGAEVKKPGASVKVSCTASGFNIKDDYIHWVRQAPGQGLEWIGRIDPADGHTKYAPKFQVKVTITADTSTSTAYMELSSLRSEDTAVYYCARYGYGREVFDYWGQGTTVTVSS
VL: DIVLTQSPDSLAVSLGERATISCKASQSVDYDGDSYMNWYQQKPGQPPKILIYDASNLESGIPARFSGSGSGTDFTLTISSLEPEDFAIYYCQQSNEDPWTFGGGTKVEIK
notes: also called VH variant 4 + VL variant 2
B8: humanized TNT005 variant VH variant 5+Vk variant 5 (antibody, V domains shown)
VH: QVQLVQSGAEVKKPGASVKVSCAASGFNIKDDYIHWVRQAPGQGLEWIGRIDPADGHTKYAPKFQVKVTITADTSTSTAYMELSSLRSEDTAVYYCARYGYGREVFDYWGQGTTVTVSS
VL: DIVLTQSPDSLAVSLGERATISCKASQSVDYDGDSYMNWYQQKPGQPPKLLIYDASNLESGIPARFSGSGSGTDFTLTISSLEPEDFAVYYCQQSNEDPWTFGGGTKVEIK
notes: also called VH variant 5 + VL variant 5
B9: humanized TNT005 variant VH variant 2+Vk variant 1 (antibody, V domains shown)
VH: EVQLVQSGAEVKKPGASVKLSCTASGFNIKDDYIHWVKQAPGQGLEWIGRIDPADGHTKYAPKFQVKATITADTSTNTAYLELSSLRSEDTAVYYCARYGYGREVFDYWGQGTTVTVSS
VL: DIVLTQSPDSLAVSLGERATISCKASQSVDYDGDSYMNWYQQKTGQPPKILIYDASNLESGIPARFSGSGSGTDFTLTISSLEEEDFAIYYCQQSNEDPWTFGGGTKVEIK
notes: also called VH variant 2 + VL variant 1
B10: humanized TNT005 variant VH variant 4+Vk variant 1 (antibody, V domains shown)
VH: QVQLVQSGAEVKKPGASVKVSCTASGFNIKDDYIHWVRQAPGQGLEWIGRIDPADGHTKYAPKFQVKVTITADTSTSTAYMELSSLRSEDTAVYYCARYGYGREVFDYWGQGTTVTVSS
VL: DIVLTQSPDSLAVSLGERATISCKASQSVDYDGDSYMNWYQQKTGQPPKILIYDASNLESGIPARFSGSGSGTDFTLTISSLEEEDFAIYYCQQSNEDPWTFGGGTKVEIK
notes: also called VH variant 4 + VL variant 1
B11: humanized TNT005 variant VH variant 5+Vk variant 2 (antibody, V domains shown)
VH: QVQLVQSGAEVKKPGASVKVSCAASGFNIKDDYIHWVRQAPGQGLEWIGRIDPADGHTKYAPKFQVKVTITADTSTSTAYMELSSLRSEDTAVYYCARYGYGREVFDYWGQGTTVTVSS
VL: DIVLTQSPDSLAVSLGERATISCKASQSVDYDGDSYMNWYQQKPGQPPKILIYDASNLESGIPARFSGSGSGTDFTLTISSLEPEDFAIYYCQQSNEDPWTFGGGTKVEIK
notes: also called VH variant 5 + VL variant 2
B12: humanized TNT005 variant VH variant 3+Vk variant 5 (antibody, V domains shown)
VH: QVQLVQSGAEVKKPGASVKLSCTASGFNIKDDYIHWVKQAPGQGLEWIGRIDPADGHTKYAPKFQVKVTITADTSTSTAYLELSSLRSEDTAVYYCARYGYGREVFDYWGQGTTVTVSS
VL: DIVLTQSPDSLAVSLGERATISCKASQSVDYDGDSYMNWYQQKPGQPPKLLIYDASNLESGIPARFSGSGSGTDFTLTISSLEPEDFAVYYCQQSNEDPWTFGGGTKVEIK
notes: also called VH variant 3 + VL variant 5
B13: humanized TNT005 variant VH variant 1+Vk variant 5 (antibody, V domains shown)
VH: EVQLVQSGAELKKPGASVKLSCTASGFNIKDDYIHWVKQAPGQGLEWIGRIDPADGHTKYAPKFQVKATITADTSTNTAYLQLSSLTSEDTAVYYCARYGYGREVFDYWGQGTTVTVSS
VL: DIVLTQSPDSLAVSLGERATISCKASQSVDYDGDSYMNWYQQKPGQPPKLLIYDASNLESGIPARFSGSGSGTDFTLTISSLEPEDFAVYYCQQSNEDPWTFGGGTKVEIK
notes: also called VH variant 1 + VL variant 5
B14: humanized TNT005 variant VH variant 4+Vk variant 5 (antibody, V domains shown)
VH: QVQLVQSGAEVKKPGASVKVSCTASGFNIKDDYIHWVRQAPGQGLEWIGRIDPADGHTKYAPKFQVKVTITADTSTSTAYMELSSLRSEDTAVYYCARYGYGREVFDYWGQGTTVTVSS
VL: DIVLTQSPDSLAVSLGERATISCKASQSVDYDGDSYMNWYQQKPGQPPKLLIYDASNLESGIPARFSGSGSGTDFTLTISSLEPEDFAVYYCQQSNEDPWTFGGGTKVEIK
notes: also called VH variant 4 + VL variant 5

Assays:
[1] = target: T1, activated human complement C1s (human, UniProt P09871 16-688); assay: direct binding of antibody to activated C1s (aC1s); assay format not stated
T1 construct: also called aC1s; active C1s
T1 sequence: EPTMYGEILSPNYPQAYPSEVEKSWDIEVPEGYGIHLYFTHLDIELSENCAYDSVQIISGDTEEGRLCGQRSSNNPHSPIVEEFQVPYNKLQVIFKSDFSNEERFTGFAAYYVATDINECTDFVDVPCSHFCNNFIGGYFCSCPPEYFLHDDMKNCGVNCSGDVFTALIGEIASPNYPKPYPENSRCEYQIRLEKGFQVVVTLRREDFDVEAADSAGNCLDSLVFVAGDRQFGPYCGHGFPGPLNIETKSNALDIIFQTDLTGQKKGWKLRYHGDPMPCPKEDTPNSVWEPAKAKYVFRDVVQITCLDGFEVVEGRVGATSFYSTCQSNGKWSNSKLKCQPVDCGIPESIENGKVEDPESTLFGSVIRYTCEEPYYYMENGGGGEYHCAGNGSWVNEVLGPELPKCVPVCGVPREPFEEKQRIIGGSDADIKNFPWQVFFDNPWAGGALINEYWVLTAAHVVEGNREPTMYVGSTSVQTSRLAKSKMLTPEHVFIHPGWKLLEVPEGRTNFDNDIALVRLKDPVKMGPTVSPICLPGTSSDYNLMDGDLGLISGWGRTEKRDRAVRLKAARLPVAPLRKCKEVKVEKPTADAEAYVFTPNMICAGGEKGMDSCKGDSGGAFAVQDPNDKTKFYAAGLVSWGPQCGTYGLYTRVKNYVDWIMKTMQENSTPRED

[2] = target: T1, activated human complement C1s; assay: cell-based or functional assay
[3] = target: T1, activated human complement C1s; assay: competition binding to active C1s; competitor 50 pM biotinylated TNT005 (Biot-005)
Procedure: All 15 combinations (VH variant 1+Vk variant 1; VH variant 1+Vk variant 2; VH variant 1+Vk variant 5; VH variant 2+Vk variant 1; VH variant 2+Vk variant 2; VH variant 2+Vk variant 5; VH variant 3+Vk variant 1; VH variant 3+Vk variant 2; VH variant 3+Vk variant 5; VH variant 4+Vk variant 1; VH variant 4+Vk variant 2; VH variant 4+Vk variant 5; VH variant 5+Vk variant 1; VH variant 5+Vk variant 2; VH variant 5+Vk variant 5) were produced. Each humanized variant was tested for the ability to compete with biotinylated TNT005 for binding to active C1s.

[4] = target: T1, activated human complement C1s; assay: kinetic characterization of binding to active human C1s; instrument not stated; column head kdis
[5] = target: T1, activated human complement C1s; assay: kinetic characterization of binding to active human C1s; instrument not stated

Binder | EC50 [1] | IC50 of classical complement pathway inhibition (commercial CP activation assay) [2] | IC50 [3] | koff [4] | Kd [5] | kon [5]
B1 | 0.0559 nM | 1.06 nM | 0.0395 nM |  |  | 
B2 | 0.163 nM | 1.26 nM | 0.183 nM | 0.00049 s⁻¹ | 0.585 nM | 838000 M⁻¹ s⁻¹
B3 | 0.0828 nM |  |  |  |  | 
B4 | 0.168 nM | 1.27 nM | 0.179 nM |  |  | 
B5 | 0.088 nM | 1.14 nM | 0.0557 nM | 0.00017 s⁻¹ | 0.208 nM | 818000 M⁻¹ s⁻¹
B6 | 0.201 nM | 1.2 nM | 0.124 nM | 0.000197 s⁻¹ | 0.228 nM | 864000 M⁻¹ s⁻¹
B7 | 0.119 nM | 1.31 nM | 0.158 nM |  |  | 
B8 | 0.165 nM | 1.33 nM | 0.137 nM |  |  | 
B9 | 0.137 nM | 1.23 nM | 0.144 nM | 0.000208 s⁻¹ | 0.251 nM | 829000 M⁻¹ s⁻¹
B10 | 0.152 nM | 1.35 nM | 0.152 nM |  |  | 
B11 | 0.164 nM | 1.31 nM | 0.148 nM |  |  | 
B12 | 0.138 nM | 1.38 nM | 0.158 nM |  |  | 
B13 | 0.107 nM | 1.26 nM | 0.129 nM | 0.000168 s⁻¹ | 0.217 nM | 776000 M⁻¹ s⁻¹
B14 | 0.205 nM | 1.54 nM | 0.156 nM |  |  | 
